From paper PMC6884549, “Alkyladenine DNA glycosylase associates with transcription elongation to coordinate DNA repair with gene expression” (Nature Communications, 2019)

B1: FLAG-tagged ELP1, purified recombinant (natural protein, human, UniProt O95163 1-1332, looked up)
chain: MRNLKLFRTLEFRDIQGPGNPQCFSLRTEQGTVLIGSEHGLIEVDPVSREVKNEVSLVAEGFLPEDGSGRIVGVQDLLDQESVCVATASGDVILCSLSTQQLECVGSVASGISVMSWSPDQELVLLATGQQTLIMMTKDFEPILEQQIHQDDFGESKFITVGWGRKETQFHGSEGRQAAFQMQMHESALPWDDHRPQVTWRGDGQFFAVSVVCPETGARKVRVWNREFALQSTSEPVAGLGPALAWKPSGSLIASTQDKPNQQDIVFFEKNGLLHGHFTLPFLKDEVKVNDLLWNADSSVLAVWLEDLQREESSIPKTCVQLWTVGNYHWYLKQSLSFSTCGKSKIVSLMWDPVTPYRLHVLCQGWHYLAYDWHWTTDRSVGDNSSDLSNVAVIDGNRVLVTVFRQTVVPPPMCTYQLLFPHPVNQVTFLAHPQKSNDLAVLDASNQISVYKCGDCPSADPTVKLGAVGGSGFKVCLRTPHLEKRYKIQFENNEDQDVNPLKLGLLTWIEEDVFLAVSHSEFSPRSVIHHLTAASSEMDEEHGQLNVSSSAAVDGVIISLCCNSKTKSVVLQLADGQIFKYLWESPSLAIKPWKNSGGFPVRFPYPCTQTELAMIGEEECVLGLTDRCRFFINDIEVASNITSFAVYDEFLLLTTHSHTCQCFCLRDASFKTLQAGLSSNHVSHGEVLRKVERGSRIVTVVPQDTKLVLQMPRGNLEVVHHRALVLAQIRKWLDKLMFKEAFECMRKLRINLNLIYDHNPKVFLGNVETFIKQIDSVNHINLFFTELKEEDVTKTMYPAPVTSSVYLSRDPDGNKIDLVCDAMRAVMESINPHKYCLSILTSHVKKTTPELEIVLQKVHELQGNAPSDPDAVSAEEALKYLLHLVDVNELYDHSLGTYDFDLVLMVAEKSQKDPKEYLPFLNTLKKMETNYQRFTIDKYLKRYEKAIGHLSKCGPEYFPECLNLIKDKNLYNEALKLYSPSSQQYQDISIAYGEHLMQEHMYEPAGLMFARCGAHEKALSAFLTCGNWKQALCVAAQLNFTKDQLVGLGRTLAGKLVEQRKHIDAAMVLEECAQDYEEAVLLLLEGAAWEEALRLVYKYNRLDIIETNVKPSILEAQKNYMAFLDSQTATFSRHKKRLLVVRELKEQAQQAGLDDEVPHGQESDLFSETSSVVSGSEMSGKYSHSNSRISARSSKNRRKAERKKHSLKEGSPLEDLALLEALSEVVQNTENLKDEVYHILKVLFLFEFDEQGRELQKAFEDTLQLMERSLPEIWTLTYQQNSATPVLGPNSTANSIMASYQQQKTSVPVLDAELFIPPKINRRTQWKLSLLD
notes: ELP1 (IKBKAP), cDNA excised from pCMV6-XL5-ELP1 (OriGene) and inserted into pcDNA3.1(+)-3xFLAG; Seen as a dimer after BS3 cross-linking; Purified in one step from human cells, so other Elongator subunits might be present (my surmise); also called FLAG-ELP1; ELP1 dimer

What was measured:
[1] = biological target: the molecule itself; test: cross-linking; 10 µM of purified proteins in 0.1 M sodium phosphate, 0.15 M NaCl, pH 7.4, 30 min at RT; BS3 at 0, 0.1 and 0.5 mM for 1 h at 4 °C; gel shift read by immunoblot; single proteins with the highest amount of BS3 as controls
[2] = biological target: B1; test: co-IP; purified proteins: 1 µg of protein with 1 µg of antibody overnight at 4 °C in 200 µl IP buffer (20 mM HEPES pH 7.9, 140 mM NaCl, 0.01% NP-40), Protein-A sepharose beads, immunoblot; settings: both partners purified

Binder	stoichiometry N [1]	binding result [2]
B1	2	
AAG lacking 80 N-terminal amino acids, purified recombinant (domain or fragment, human, UniProt P29372 81-298, looked up, Alkyladenine DNA glycosylase (AAG, MPG), human, lacking the first 80 N-terminal amino acids; also called Δ80 AAG; ∆80AAG) GHLTRLGLEFFDQPAVPLARAFLGQVLVRRLPNGTELRGRIVETEAYLGPEDEAAHSRGGRQTPRNRGMFMKPGTLYVYIIYGMYFCMNISSQGDGACVLLRALEPLEGLETMRQLRSTLRKGTASRVLKDRELCSGPSKLCQALAINKSFDQRDLAQDEAVWLERGPLEPSEPAVVAAARVGVGHAGEWARKPLRFYVRGSPWVSVVDRVAEQDTQA		binds
